The values below come from patent US20190203210A1.

Data set [1] concerns the target FLAG-HA-Atoh1 (UniProt Q92858). Put plainly: anti-HA IP of FLAG-HA-Atoh1 293T lysate, LC-MS/MS, ComPASS.
The target in data set [2] is FLAG-HA-Atoh1 (UniProt Q92858). Description: MS of 450 kDa Coomassie band from FLAG-HA-Atoh1 IP.
Data set [3] addresses FLAG-HA-Atoh1 (UniProt Q92858).
The test system of data set [4] is FLAG-Atoh1.

As to AAMP (from UniProt Q13685 1-434), in data set [1], the D^N Score was determined as 1 and the Z score was determined as 5.03.
In data set [1], ACOX1 (from UniProt Q15067 1-660) came in with a D^N Score of 1.41 and a Z score of 5.71.
For AHSA1 (from UniProt O95433 1-338), in that order: 1 and 5.03.
In data set [2], AKAP9 (from UniProt Q99996 1-3907) yielded a Total peptide of 26 and a Unique peptide of 26.
On to ATP2A1 (from UniProt O14983 1-1001), for which, in data set [1], the D^N Score came to 1.41 and the Z score was determined as 5.71.
In the case of BCKDHA (from UniProt P12694 46-445), in data set [1], the D^N Score amounted to 2 and the Z score worked out at 5.54.
For CCDC124 (from UniProt Q96CT7 1-223), in that order: 1 and 5.03.
CEP350 (from UniProt Q5VT06 1-3117): in data set [2], the Total peptide was determined as 23 and the Unique peptide amounted to 21.
For the substance CPOX (from UniProt P36551 111-454), in data set [1], the D^N Score came out at 2 and the Z score was determined as 5.54.
CTPS2 (from UniProt Q9NRF8 1-586): in data set [1], the D^N Score turned out to be 2.45 and the Z score is 5.6.
In data set [2], DMXL1 (from UniProt Q9Y485 1-3027) returned a Total peptide of 13 and a Unique peptide of 12.
DYNC1H1 (from UniProt Q14204 2-4646): in data set [2], the Total peptide was 87 and the Unique peptide is 75.
As for EIF2C1 (from UniProt Q9UL18 1-857), in data set [1], the D^N Score amounted to 1 and the Z score turned out to be 5.16.
Regarding EIF2C2 (from UniProt Q9UKV8 1-859), in data set [1], the D^N Score came out at 3.16 and the Z score is 5.72.
In data set [1], EIF2C3 (from UniProt Q9H9G7 1-860) had a D^N Score of 1 and a Z score of 5.16.
ENAH (from UniProt Q8N8S7 1-591): in data set [1], the D^N Score is 1.41 and the Z score was 5.71.
In data set [1], FHL3 (from UniProt Q13643 2-280) gave a D^N Score of 1 and a Z score of 5.16.
For FLNC (from UniProt Q14315 1-2725), in data set [1], the D^N Score is 1.15 and the Z score was found to be 5.21.
For GFAP (from UniProt P14136 1-432), in that order: 2.45 and 5.71.
As to GOLGB1 (from UniProt Q14789 1-3259), in data set [2], the Total peptide turned out to be 12 and the Unique peptide was 10.
Regarding “HECT, UBA and WWE domain containing 1 (Huwe1) protein”, the “poly-ubiquitylation of Atoh1 after Huwe1 knockdown (shRNA)” value in data set [3] was “decreased poly-ubiquitylation was observed after Huwe1 knockdown”.
For the substance “HECT, UBA and WWE domain containing 1 (Huwe1) protein, Q7Z6Z7 1-4374”, in data set [2], the Total peptide was found to be 279 and the Unique peptide is 122. In data set [1], this substance returned a D^N Score of 1.5 and a Z score of 5.56.
Consider “HERC2 (from UniProt O95714 1-4834) (enzyme)”, for which, in data set [2], the Total peptide is 36 and the Unique peptide came to 34.
For KIF11 (from UniProt P52732 1-1056), in that order: 79 and 46.
In data set [2], MACF1 (from UniProt Q9UPN3 1-7388) came in with a Total peptide of 51 and a Unique peptide of 50.
For MAP1A (from UniProt P78559 1-2803), in that order: 15 and 14.
In data set [2], MAP1B (from UniProt P46821 2-2468) returned a Total peptide of 133 and a Unique peptide of 78.
Consider “MAPK3 (from UniProt P27361 2-379) (enzyme)”, for which, in data set [1], the D^N Score came to 2 and the Z score was 5.71.
In the case of MDN1 (from UniProt Q9NU22 1-5596), in data set [2], the Total peptide was 41 and the Unique peptide worked out at 37.
In data set [2], MGA (from UniProt Q8IWI9 1-3065) yielded a Total peptide of 29 and a Unique peptide of 27.
For the substance “MYCBP2 (from UniProt O75592 1-4678) (enzyme)”, in data set [2], the Total peptide came to 51 and the Unique peptide turned out to be 47.
For the substance Myc-Huwe1 C4341A, in data set [4], the “wild-type and K48 poly-ubiquitylated Atoh1” value is “The resulting decrease in both wild-type and K48 poly-ubiquitylated Atoh1”.
Regarding “NEK9 (from UniProt Q8TD19 2-979) (enzyme)”, in data set [1], the D^N Score worked out at 2.83 and the Z score was 5.54.
As to NT5DC2 (from UniProt Q9H857 1-520), in data set [1], the D^N Score was 2 and the Z score was 5.71.
For PDE4D (from UniProt Q08499 1-809), in that order: 1.41 and 5.71.
For PDXK (from UniProt O00764 1-312), in that order: 1.41 and 5.71.
As for PLEC (from UniProt Q15149 1-4684), in data set [2], the Total peptide was determined as 17 and the Unique peptide stood at 16.
With PRDX4 (from UniProt Q13162 38-271), in data set [1], the D^N Score came out at 1.23 and the Z score came out at 4.6.
On to “PRKDC (from UniProt P78527 1-4128) (enzyme)”, for which, in data set [2], the Total peptide was determined as 161 and the Unique peptide came out at 112.
For PRPS1 (from UniProt P60891 2-318), in data set [1], the D^N Score came out at 1.23 and the Z score was 4.6.
For the substance PRRC2C (from UniProt Q9Y520 1-2896), in data set [2], the Total peptide was determined as 26 and the Unique peptide is 21.
For “RNF213 (from UniProt Q63HN8 1-5207) (enzyme)”, in that order: 32 and 30.
For SACS (from UniProt Q9NZJ4 1-4579), in that order: 12 and 12.
SEC23A (from UniProt Q15436 2-765): in data set [1], the D^N Score stood at 1.23 and the Z score amounted to 5.24.
For SEC23B (from UniProt Q15437 2-767), in that order: 1 and 5.03.
For SERPINH1 (from UniProt P50454 19-418), in that order: 1 and 3.92.
In data set [1], SLC3A2 (from UniProt P08195 2-529) came in with a D^N Score of 1.41 and a Z score of 5.71.
In data set [2], SON (from UniProt P18583 2-2426) displayed a Total peptide of 22 and a Unique peptide of 20.
As to SRI (from UniProt P30626 1-198), in data set [1], the D^N Score is 1.41 and the Z score worked out at 5.71.
Take SRRM2 (from UniProt Q9UQ35 1-2752): in data set [2], the Total peptide stood at 53 and the Unique peptide was 38.
Turning to TCF3 (from UniProt P15923 1-654), in data set [1], the D^N Score stood at 3.16 and the Z score worked out at 5.57.
Consider TCF12 (from UniProt Q99081 1-682), for which, in data set [1], the D^N Score turned out to be 2.45 and the Z score is 5.71.
In data set [1], TNRC6C (from UniProt Q9HCJ0 1-1936) had a D^N Score of 2 and a Z score of 5.71.
As to TRRAP (from UniProt Q9Y4A5 2-3859), in data set [2], the Total peptide turned out to be 12 and the Unique peptide is 12.
TUBA1C (from UniProt Q9BQE3 1-449): in data set [1], the D^N Score stood at 1.39 and the Z score amounted to 2.88.
For TUBA4A (from UniProt P68366 1-448), in that order: 3 and 3.77.
For TUBB2B (from UniProt Q9BVA1 1-445), in that order: 2.58 and 4.36.
Turning to “UBR5 (from UniProt O95071 2-2799) (enzyme)”, in data set [2], the Total peptide worked out at 31 and the Unique peptide stood at 26.
In data set [1], “USP11 (from UniProt P51784 1-963) (enzyme)” displayed a D^N Score of 1.41 and a Z score of 5.42.
For “USP47 (from UniProt Q96K76 1-1375) (enzyme)”, in that order: 2 and 5.54.
In data set [2], UTRN (from UniProt P46939 1-3433) came in with a Total peptide of 30 and a Unique peptide of 30.
In data set [1], YARS2 (from UniProt Q9Y2Z4 17-477) gave a D^N Score of 1.41 and a Z score of 5.71.
For ZYX (from UniProt Q15942 2-572), in that order: 1.58 and 5.48.
